Experimental data: publication PMC6378967, “Structural basis for the specificity of renin-mediated angiotensinogen cleavage” (The Journal of Biological Chemistry, 2018)

T1: biotinylated renin D226A mutant (human, biotin (NHS-PEG4-Biotin), preferentially on N-terminal alpha-amino groups)
T1 construct: human renin D226A, as m1; source: HEK293EBNA cells, purified; biotinylated with EZ-link-NHS-PEG4-Biotin at pH 6.2
T1 sequence (P00797 67-406 with D226A, looked up): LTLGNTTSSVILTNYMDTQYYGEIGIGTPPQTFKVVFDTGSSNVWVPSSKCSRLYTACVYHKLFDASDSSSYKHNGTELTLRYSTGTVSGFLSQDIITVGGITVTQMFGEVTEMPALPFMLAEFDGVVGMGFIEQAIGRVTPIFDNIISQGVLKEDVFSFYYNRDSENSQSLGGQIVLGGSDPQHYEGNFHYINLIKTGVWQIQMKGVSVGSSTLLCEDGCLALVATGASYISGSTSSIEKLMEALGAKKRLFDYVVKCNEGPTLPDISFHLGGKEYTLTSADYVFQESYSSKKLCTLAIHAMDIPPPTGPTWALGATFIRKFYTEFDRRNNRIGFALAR


Legend:
[1] = target: T1, biotinylated renin D226A mutant; assay: BLI; FortéBio Octet Red96; biotinylated renin D226A (2.5 μg/ml) loaded on streptavidin biosensors; 2-fold dilutions of AGT in 10 mM Tris, pH 7.4, 0.15 M NaCl, 1% BSA; 1:1 binding model, global fit; KD = koff/kon; three independent assays; details: both partners purified
[2] = target: T1, biotinylated renin D226A mutant; assay: BLI; as a1 (biotinylated renin D226A on streptavidin biosensors), but KD from steady-state analysis because on and off rates were very fast; details: both partners purified

Kd [1] [µM]	koff [1] [s⁻¹]	kon [1] [M⁻¹ s⁻¹]	Kd [2] [µM]	Binder
0.0203	0.000437	21500	–	fully glycosylated WT human angiotensinogen (AGT) (natural protein, N-linked glycans (fully glycosylated; glycosylation sites Asn14, Asn137, Asn271, Asn295)) DRVYIHPFHLVIHNESTCEQLAKANAGKPKDPTFIPAPIQAKTSPVDEKALQDQLVLVAAKLDTEDKLRAAMVGMLANFLGFRIYGMHSELWGVVHGATVLSPTAVFGTLASLYLGALDHTADRLQAILGVPWKDKNCTSRLDAHKVLSALQAVQGLLVAQGRADSQAQLLLSTVVGVFTAPGLHLKQPFVQGLALYTPVVLPRSLDFTELDVAAEKIDRFMQAVTGWKTGCSLMGASVDSTLAFNTYVHFQGKMKGFSLLAEPQEFWVDNSTSVSVPMLSGMGTFQHWSDIQDNFSVTQVPFTESACLLLIQPHYASDLDKVEGLTFQQNSLNWMKKLSPRTIHLTMPQLVLQGSYDLQDLLAQAELPAILHTELNLQKLSNDRIRVGEVLNSIFFELEADEREPTESTQQLNKPEVLEVTLNRPFLFAVYDQSATALHFLGRVANPLSTA
–	–	–	13	spent AGT (human AGT without the N-terminal 10-residue angiotensin I peptide) (domain or fragment, glycosylated) VIHNESTCEQLAKANAGKPKDPTFIPAPIQAKTSPVDEKALQDQLVLVAAKLDTEDKLRAAMVGMLANFLGFRIYGMHSELWGVVHGATVLSPTAVFGTLASLYLGALDHTADRLQAILGVPWKDKNCTSRLDAHKVLSALQAVQGLLVAQGRADSQAQLLLSTVVGVFTAPGLHLKQPFVQGLALYTPVVLPRSLDFTELDVAAEKIDRFMQAVTGWKTGCSLMGASVDSTLAFNTYVHFQGKMKGFSLLAEPQEFWVDNSTSVSVPMLSGMGTFQHWSDIQDNFSVTQVPFTESACLLLIQPHYASDLDKVEGLTFQQNSLNWMKKLSPRTIHLTMPQLVLQGSYDLQDLLAQAELPAILHTELNLQKLSNDRIRVGEVLNSIFFELEADEREPTESTQQLNKPEVLEVTLNRPFLFAVYDQSATALHFLGRVANPLSTA
